Experiment: yeast display, Sf9 membrane polyspecificity reagent, FACS + sequencing; frameworks hold sequencing errors
Method in brief: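 Genes from sorted yeast were amplified by colony PCR, read by MiSeq 2 × 250 sequencing and filtered on CDR length. These cells carried a synthetic nanobody library in Saccharomyces cerevisiae BJ5465 and were sorted by FACS into low and high (top ~1%) gates on anti-HA and streptavidin fluorescence. Polyreactivity is labelled according to the gate of origin.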

Sequence	polyreactivity (PSR sort gate)
QLQLVESGGGLVQAGGSLRLSCAASGLIFYDNMAWSRPAPAKEMELVAAISSSGGSTSYADSVKGRFSISRDNAKNTVYLQLISLKPEDTAVYYCAADSYPAYLGFVGFDYWGQGTQVTVSS	low polyreactivity
QLQLVESGGGLVQAGGSLRLSCAASGLTFVDYAMGWYRQAPGKERELVAAITSSGGSITYYADSVKGRFTISRDNAKNTVYLQLNSLKPEDTAVYYCNADYGIYTDSFRGPDYESWGQGTQVTVSS	low polyreactivity
QLQLVESGGGLVQAGGSLRLSCAASGRIFKEYAMGWYRQAPGQERELVAAISWRGGSTYYADSVKGRFTISRDNAKNTVNLQMNSLKPEDTAVYYCARVVSRNTHPYYHWGQVTQVTVSS	low polyreactivity
QLQLVESGGGLVQAGGSLRLSCAASGRIFKLNAMGWSRQAPGKERELVAAINSGTRTYYADSVKGRFTISRDNAKNTVYLQMNSLKPEDTAVYYCAAEGVWWYSRYDYWGQGTQVTVSS	high polyreactivity
QLQLVESGGGLVQAGGSLRLSCAASGRIFTYNALGWYRQAPGKERELVARIRRSGGTYYADSVKGRFTISRDNAKNTVYLQMNSLKPEDTAVYYCAVDLYIYYREYDYWGQGTQVTVSS	high polyreactivity
QLQLVESGGGLVQAGGSLRLSCAASGRIFVANTMGWYRQAPGKERELVAAISRGSTYYADSVKGRFTISRDNAKNTVYLQMKSLKPEDTAVYYCAVKLAYGYYYWGLGTQVTVSS	high polyreactivity
QLQLVESGGGLVQAGGSLRLSCAASGRIFVYYAMGWYRQAPGKERELVASISYSGASTYYADSVKGRFTISRDNAKNTVYFQMNSLKPEDTAVYYCNTDGDDFFHVIYDYWGQGTQVTVSS	low polyreactivity
QLQLVESGGGLVQAGGSLRLSCAASGRNFVHNAMGWYRPAPGKEREFVAAISLRGGSTYYADSVKGRFTTSRDNAKNSVYLQMNSLKPEDTAVYYCAAVPAHFYGYDYWGQGTQVTVSS	low polyreactivity
QLQLVESGGGLVQAGGSLRLSCAASGRTFFRYVMGWYRQAPGKERELVAAISTRGGSTYYADSVKGRFTISRDNAKNTVYLQMNSLKPEDTAVYYCAARFKVRDYSYNYWGQGTQVTVSS	high polyreactivity
QLQLVESGGGLVQAGGSLRLSCAASGRTFQPYAMGWYRQAPGKERELVAAITSIGGSTFYADSVKGRFTISRDNAKNTVYLQMNSLKPEDTAVYYCAADPYTLYWYYWYGTSGFDYWGQGTQVTVSS	low polyreactivity
QLQLVESGGGLVQAGGSLRLSCAASGRTFVRYAMGWYRQAPGKERELVAGISRSTGGTYYADSVKGRFTISRDNAKNTVYLQMNSLKPEDTAVYYCAAVYHKNGSGDYSWGQGTQVTVSS	high polyreactivity
QLQLVESGGGLVQAGGSLRLSCAASGRTFWYYAMGWYRQAPGKESELVAGISRGGSTNYADSVKGRFTISRDNAKNTVYLQMKSLKPADTAVYYCIVGRWYSQGTTGVFKGGYWGQGTQVTVSS	low polyreactivity
QLQLVESGGGLVQAGGSLRLSCAASGSIFQYNAMGLYRQAPGKRELVAALNRSGGSTYYGDSVKGRFTISRDNAKNTVDLQMNSLKPEDTAVYYCAAGVFYFLKYTVSFINYYWRQGTQVTVSS	high polyreactivity
QLQLVESGGGLVQAGGSLRLSCAASGSIFRVYAMGWYRQARGKERELVAAISSSGVRTSYADSVKGRFTISRDNAKNTVYLQMNSLKPEDTAVYYCADRYPYGYYHWGQGTQVTVSS	high polyreactivity
QLQLVESGGGLVQAGGSLRLSCAASGSIFSFYAMGGYRQAPGKERELVATITYGSGSTHYADSVKGRFTISRDNAKNTVYLQLNSLKPEDSAVYYCAGETVRYEWGDSPAALFDYWGQGTQVTVSS	low polyreactivity
QLQLVESGGGLVQAGGSLRLSCAASGSIFYQYVMGWYRQAPGKEREFVAAIRYTGVGTYYADSVKGRFTLSRDNAKYTVYLQMNSLKPEDTAVYYCAARSYNRRARYDYWGQGTQVNVSS	high polyreactivity
QLQLVESGGGLVQAGGSLRLSCAASGSIIGYYAMGWYRQAHGKERELVAAITASGGSTYYADSVKGRFTISRDNAKNTVYLQMNILKPEDTAVYYCAAGTHTDYGRYYYWGQGTQVTVSS	low polyreactivity
QLQLVESGGGLVQAGGSLRLSCAASGSTFALYAMGWYRQAPGKERELVAAITSDGSTKYADSVKGRFTISRDNAKNTVYLQMNSLKPEDTAVYYCNTEYYYPGIPYDYWGQGTQVTVSS	high polyreactivity
QLQLVESGGGLVQAGGSLRLSCAASGSTFHLYAMGCYREAPWNEREFVAAIRGRGGNTYADSVKGRFTISRDNAKNTVYLPMNSLKPEDTAVYYCAAAFYYYGDSDNWGQGTQVTVSS	low polyreactivity
QLQLVESGGGLVQAGGSLRLSCAASGSTFSPYAMGWYRQAPGKERDLVAGITSSGGDTYYADSVKGRFTISRDNAKNTVYLQMNSLKPEDSAVYYCAADWWVLGQLWFDYWGQGTQVTVSS	low polyreactivity
QLQLVESGGGLVQAGGSLRLSCAASGSTFSPYAMGWYRQAPGKERELVAAISASGGGTYYADSVKWRLTISRDNAKNTVYLQMNSLKPEDTAVYYCARDYGWDISKGRYGYWGQGTQVTVSS	low polyreactivity
QLQLVESGGGLVQAGGSLRLSCAASGSTFVVYARGWYRQAPGKERELVAAITRDDGRTYYADSVKGRFTISRDNAKNTVYLQMNSLKPEDTAVYYCAAGYSFGYGYWGQGTQVTVSS	low polyreactivity

Sequence	polyreactivity (PSR sort gate)
QLQLVESGGGLVQAGGSLRLSCAASGSTFWRYAMGWYRQAPGKERELVAAISWNGGSTYYADSVKGRFTISRDNAKNTVYLQMNSLKPEDTAVYYCAADYWFRYGTYEYWGQGTQGTVSS	high polyreactivity
QLQLVESGGGLVQAGGSLRLSCAASGYIFEFYAMGWYSQARGKERELVDAIRWNGGTYYADSVKGRFTISRDNAKNTVYLQMNSLKPEDTAVYDCSASRYYRYKIGYVSRAMDYWGQGTQVTVSS	high polyreactivity
QLQLVESGGGLVQAGGSLRLSCAGSGGTFRVYAMGWYRQATGKERALVAAITGRGGSTYYADSVKGRFTISRDTAKNTVYLQMNSLKAEDTAVYYCAAVSFSDGSPYNYWGLGTQVTVSS	low polyreactivity
QLQLVESGGGLVQAGGSLRLSCAYYGFIFYWNAMGWYRHAPGKESQFVATITWSGGSTYYADSVTGRFTISRDNAKNTVYLQMNSLKPEDTAVYSCAVSYLSTLGRSRSDYWGQGTQVTVSS	low polyreactivity
QLQLVESGGGLVQAGGSLRLSSAASGITLYQYAMGWYRQSPGKERELVAAISSSGGSTYYADSVKGRFTISRDNAKNTVYLQMNSLKPEETAVYYCAAADRFWYGYYQYDYWGQGTQVTVSS	high polyreactivity
QLQLVESGGGLVQAGGSLSLTFAASGIISNYNAMGWYIQAPGKERELVSAISRSGTRKYYADSVKGRYTISRDNAKNTVYLQMNSLKPEDTAVYDCAAPSWSSKGYCKGYYWGQGTQVTVSS	high polyreactivity
QLQLVESGGGLVQAGRRLRLTCAASGSIFQGNVMGWYRQAPGKERELVAAITWSGGRTYYADSVKGRFTISRDHAKNTVYLQMNSMNPDDTAVYYCNAVIGRELDYWGQGTKVTVSS	high polyreactivity
QLQLVESGGGLVQARGSLRLSCAASGYIFGSYAMGWDRQAPGKERELVAANSKSGGSTYYADSVKGRFTISRDYAKNTVYLQMNSLKPEDTAVYYCAAAGIGGGGWGQGTQVTVSS	low polyreactivity
QLQLVESGGGVVQAGGSLRLSCAATGRIDWNTMGWYRQAPGKERELVASISTGGGRTYYADSVKGRFTISRDNAKNTVYLQMISLKPEDTAVFYCNAVRTVWYRYEYGYWGQGTQVTVSS	high polyreactivity
QLQLVESGGRLVQAAVSLRLSFAASGRTFYPYAMGWYRPAPGKERELVAAITSRGASTYYADSVKGRFTISRDNAKNTVYLQMNSLKPEDTAVYYCNSGRTYRRLGDYLGQGTQVTVSS	high polyreactivity
QLQLVESGGVLVQAGGSLRLSCAASGSTFRYNAMGWYRQAPGKERELVASITWSGGDTYYADSVKGRFTISRDNAKNTVYLQMNSLKPEDTAVYYCAKKGYASRYFIYDYWGQGTQVTVSS	low polyreactivity
QLQLVESRRGLVHAGGSLRLSSDASGRIFLYYAMGWYRQAPVKERELVARITSSGSTYYADSVKGLFTISRDNAKNTVYLQMNSLKPEDTAVYYCAADWYWGGIVDSWGQGTQVTVSS	high polyreactivity
QLQLVESVGGLVQAGGSLRLSCAASGGIFNVNALGWYRQAPGKERELVAAISLSGSNTYYADSVKGRFTISRDNAKNTVYLQMNSLKPEDTAVYYCNADYVYRRYGYWGQGTQVTVSS	high polyreactivity
QLQLVETGGGLVQAGGSLRLSCAASGSIIAKNAKGWYSQAPGTDRELVAAISKSGGITYYADSVKGRFSISRDNAKNTVYLQINSLKPEDTAVYYCNALSAGYIGVASRYYYWGQGTQVTVSS	high polyreactivity
QLQLVQSGGGLVQAGGSLRLSCASSGRTFTPNARGWYSQAPGKEREMVAAISWRGGSTYYADAVMGRFTISRVNGKYTVYLEMKSLKPEDTGVYYCKKRSDKSYTRTEYDNWRQGTQVTVSS	high polyreactivity
QVEHVDSGGGLVQAGGSLRLSCAASGRTIWDYMGWYRQAPGKEREVVATITSSGGSTYYADSVKGRFTISRDNAKNTVYLQMNSLKPEDTAVYYCNADWYLWSTFAQGYGYWGQGTQVTVSS	high polyreactivity
QVEHVESGGGLVQAGGSLRLSCAASGGTFSHNDMGWYRQAPGKERELVPSINSGGSTNYADSVKGRFTISRDNAKNTVDLQMNSLKPEDNAVYYCAADVEGWTVESDVYRVGYDYWGQCTQVTVSS	low polyreactivity
QVEHVESGGGLVQAGGSLRLSCAASGSIIVDNAMGWSRQAPGKDRELVAAISVGGGRTYYADSVKGRFTISRDNAKNTVYLQMNSLKPEDTAVYYCNRVPTRGPHGVWFGYCGQGTQVTVSS	high polyreactivity
QVELEESGGGLVQAGGSLRLSCAASGFIFRYYALGWYRPGPGTVRELVAVISSSGSTHYADSVKGRITISRDNAKNTVYLQMNSLKPEDTAVYYCAADGNVWSGPRYDYWGQGTQLTVSS	low polyreactivity
QVELQVSGGGLVRAGGSLRLSCAASGNIFDADIMGWYRQAPGKERELVASITGGGSTSYAESAKGRFTISRDNAKNAVYLQMNRLKPEDTAVYYCAAAAYYADFDYWGQGTQVTVSS	low polyreactivity
QVELVESGGGLGQAGGSLRLSCAASGLIFVLNDMGWYRLAPGKVRELVAAISYSGSSTYADSVKGRFTISRDNAKNTVYLQMNSLKPEDTAVYYCARGSKVRTRGVGYWGQGTQVTVSS	low polyreactivity
